Data on 6 molecules can be found in US9035023B2, “Bombesin analog peptide antagonist conjugates” (Piramal Imaging, SA, priority 2008, dated 2015).

For series [1], the target named is T1, GRP receptor (Homo sapiens, UniProt P30550). The experiment in a line: GRP receptor binding affinity by in vitro receptor autoradiography. Details: host or cells: PC3 cells. As to conditions: read-out: BINDING IC50 (nM) mean ± SEM. Here is the method: The GRP receptor binding affinity of the various compounds was determined by in vitro receptor autoradiography on cryostat sections of either well characterized prostate carcinomas, or on sections from HEK-GRPR or PC3 cell pellets as described previously (Markwalder et al., Can. Res., 1999; 59, 1152-1159; Reubi et al., Eur. J. Nucl. Med., 2000; 27: 273-282; Reubi et al., Clin. Cancer Res. 2002; 8 1139-1146).

Series [2] deals with T1, GRP receptor. The experiment in a line: Immunofluorescence microscopy based internalization assay with HEK-GRPR cells. As to conditions: for antagonism of bombesin-induced GRP receptor internalization: 10 nmol/L bombesin + 1 μmol/L analogue; for antagonism of bombesin-induced GRP receptor internalization / GRP receptor internalization, given alone: 30 min; for GRP receptor internalization, given alone: 1 μmol/L. Set-up: expressed in transfected cells; host or cells: HEK293. The format is cell-based. How it is done: Briefly, HEK-GRPR cells were grown on poly-D-lysine (20 μg/ml) (Sigma-Aldrich, St. Louis, Mo.) coated 35 mm four-well plates (Cellstar, Greiner Bio-One GmbH, Frickenhausen, Germany). […] The cells were imaged using a Leica DM RB immunofluorescence microscope and an Olympus DP10 camera.
Following incubation with the peptides, the cells were processed for immunocytochemistry as described in above.

For series [3], the target named is T1, GRP receptor. Nature of the series: Calcium release assay in PC3 cells (Fluo-4NW). It is filed as cell-based. Details: host or cells: PC3 cells. How it is done:
In brief, PC3 cells were seeded (10,000 cells per well) in 96 well plates and cultured for 2 day at 37° C. and 5% CO2 in culture medium. At the day of the experiment, the cells were washed with assay buffer (1×HBSS, 20 mM HEPES) containing 2.5 mM probenecid, and then loaded with 100 μL/well Fluo-4NW dye in assay buffer containing 2.5 mM probenecid for 30 min at 37° C. and 5% CO2 and then for further 30 min at room temperature. […] Intracellular calcium mobilization was recorded in a kinetic for 60 sec at room temperature monitoring fluorescence emission at 520 nm (with λex=485 nm) in the presence of the analogues at the concentrations indicated. […] Baseline (F-baseline) measurements were taken for dye-loaded, untreated cells. […] All experiments were repeated at least three times in triplicate.

Series [4] deals with PC-3 tumor.
The subject of series [5] is PC-3 tumor. The experiment in a line: Biodistribution in PC-3 tumor bearing nude mice. How it is done: Eleven days after inoculation the mice were injected into the tail vein with 10 pmol of radiolabeled peptides (about 0.18 MBq), diluted in NaCl (0.1% bovine serum albumin, pH 7.4, total injected volume=100 μL).
For series [6], the target named is T1, GRP receptor. The conditions noted are these: cited from earlier work.
Where [7] appears, read: 100 μg bombesin or non-radioactive Compound 2.

T1 sequence (P30550 whole entry): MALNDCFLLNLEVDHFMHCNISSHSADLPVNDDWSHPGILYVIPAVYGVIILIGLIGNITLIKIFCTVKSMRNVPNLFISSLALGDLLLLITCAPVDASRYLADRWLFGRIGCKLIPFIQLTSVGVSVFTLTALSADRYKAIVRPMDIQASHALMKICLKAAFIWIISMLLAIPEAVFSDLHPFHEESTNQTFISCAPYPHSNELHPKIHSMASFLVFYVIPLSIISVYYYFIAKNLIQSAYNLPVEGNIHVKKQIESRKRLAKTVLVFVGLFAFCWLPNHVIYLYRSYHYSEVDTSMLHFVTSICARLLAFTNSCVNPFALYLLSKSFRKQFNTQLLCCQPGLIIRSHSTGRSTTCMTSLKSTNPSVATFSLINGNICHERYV

Broadly, the IC50 is the concentration at which inhibition is half-maximal. As to `CC(C)C[C@H](NC(=O)C[C@H](O)[C@H](CC(C)C)NC(=O)[C@H](Cc1c[nH]cn1)NC(=O)CNC(=O)[C@@H](NC(=O)[C@H](C)NC(=O)[C@H](Cc1c[nH]c2ccccc12)NC(=O)[C@H](CCC(N)=O)NC(=O)[C@@H](Cc1ccccc1)NC(=O)c1ccc(NC(=O)CNC(=O)CN2CCN(CC(=O)O)CCN(CC(=O)O)CCN(CC(=O)O)CC2)cc1)C(C)C)C(N)=O` [Compound 1, DOTA-Gly-aminobenzoyl-D-Phe-Gln-Trp-Ala-Val-Gly-His-Sta-Leu-NH2], the IC50 at GRP receptor [1] amounted to 30 ± 4.5 nM. Moreover, on GRP receptor [2], the “antagonism of bombesin-induced GRP receptor internalization” value was “efficiently antagonized” and the “GRP receptor internalization, given alone” value is reported as “no effect on GRP receptor internalization”. Besides, at GRP receptor [3] (1 μmol/L and 10 μmol/L), the “effect on calcium release, tested alone” value is given as “no effect on calcium release”.

Take `CC(C)C[C@H](NC(=O)C[C@H](O)[C@H](CC(C)C)NC(=O)[C@H](Cc1c[nH]cn1)NC(=O)CNC(=O)[C@@H](NC(=O)[C@H](C)NC(=O)[C@H](Cc1c[nH]c2ccccc12)NC(=O)[C@H](CCC(N)=O)NC(=O)[C@@H](Cc1ccccc1)NC(=O)c1ccc(NC(=O)CNC(=O)CN2CCN(CC(=O)O)CCN(CC(=O)O)CCN(CC(=O)O)CC2)cc1)C(C)C)C(N)=O` [^115In-1]: the IC50 at GRP receptor [1] came to 16 ± 5.3 nM. Also, at GRP receptor [2] (HEK-GRPR cells), the Receptor internalization entry is reported as “Antag/no agonist”. In addition, on GRP receptor [3], the “Signaling Ca++ mobilization” value is listed as “ANTAG/no agonist effect”.

As for “[D-Phe^6, Leu-NHEt^13, des-Met^14]-bombesin(6-14) [GRPR-ANTAG, reference compound]”, at GRP receptor [2], the “antagonism of bombesin-induced GRP receptor internalization” value is reported as “efficiently antagonized” and the “GRP receptor internalization, given alone” value was “no effect on GRP receptor internalization”.

Regarding “^68Ga-DOTA-4-amino-1-carboxymethyl-piperidine-D-Phe-Gln-Trp-Ala-Val-Gly-His-Sta-Leu-NH2 [^68Ga-COMPOUND 2]”, the “blocking of tumor contrast” value in the series with LNCaP tumor (setting [7]) and in the series on PC-3 tumor [4] (setting [7]) was “effectively blocked” each time. The tumor contrast entry in the series on LNCaP tumor (1 h after injection of 10 MBq) and with PC-3 tumor [4] (1 h after injection of 10 MBq) was “High tumor-contrast” in each case.

On to “^111In-DOTA-(15-amino-4,7,10,13-tetraoxapentadecanoic acid)-(4-amino-1-carboxy-methyl-piperidine)-D-Phe-Gln-Trp-Ala-Val-Gly-His-Sta-Leu-NH2 [^111In-Compound 5]”, for which, in the series with PC-3 tumor [5] (1 h), the “biodistribution, adrenal” value was determined as 3.63 ± 0.53; the “biodistribution, blood” value is recorded as 0.75 ± 0.21; the “biodistribution, bone” value is given as 0.34 ± 0.04; the “biodistribution, heart” value is given as 0.28 ± 0.06. Besides, in the series on PC-3 tumor [5] (1 h), the “biodistribution, intestine” value was determined as 2.39 ± 0.42; the “biodistribution, kidney” value was 5.08 ± 0.72; the “biodistribution, liver” value came to 0.40 ± 0.09; the “biodistribution, lung” value worked out at 0.62 ± 0.15. Moreover, in the series with PC-3 tumor [5] (1 h), the “biodistribution, muscle” value turned out to be 0.19 ± 0.07; the “biodistribution, pancreas” value turned out to be 26.83 ± 4.34; the “biodistribution, pituitary” value turned out to be 9.02 ± 0.99; the “biodistribution, spleen” value is reported as 0.80 ± 0.28. In addition, in the series with PC-3 tumor [5] (1 h), the “biodistribution, stomach” value is 3.92 ± 1.26; the “biodistribution, tumor” value amounted to 10.27 ± 0.36; the “tumor:blood” value is 13.73; the “tumor:bone” value is 29.93. Besides, in the series with PC-3 tumor [5] (1 h), the “tumor:kidney” value is reported as 2.02, the “tumor:muscle” value is listed as 53.65 and the “tumor:pancreas” value is reported as 0.38. In addition, in the series with PC-3 tumor [5] (4 h), the “biodistribution, adrenal” value is on record as 0.68 ± 0.31; the “biodistribution, blood” value is listed as 0.03 ± 0.01; the “biodistribution, bone” value is reported as 0.08 ± 0.02; the “biodistribution, heart” value is reported as 0.03 ± 0.01. For the same molecule, in the series on PC-3 tumor [5] (4 h), the “biodistribution, intestine” value turned out to be 0.17 ± 0.10; the “biodistribution, kidney” value was determined as 2.04 ± 0.15; the “biodistribution, liver” value is 0.15 ± 0.05; the “biodistribution, lung” value amounted to 0.15 ± 0.19. In the series with PC-3 tumor [5] (4 h), the “biodistribution, muscle” value amounted to 0.02 ± 0.00; the “biodistribution, pancreas” value was found to be 1.36 ± 0.81; the “biodistribution, pituitary” value is 0.38 ± 0.16; the “biodistribution, spleen” value is recorded as 0.09 ± 0.03. For the same molecule, in the series with PC-3 tumor [5] (4 h), the “biodistribution, stomach” value was 0.87 ± 0.58; the “biodistribution, tumor” value was 9.35 ± 0.73; the “tumor:blood” value came to 319.66; the “tumor:bone” value stood at 124.55. Further, in the series on PC-3 tumor [5] (4 h), the “tumor:kidney” value is given as 4.59, the “tumor:muscle” value worked out at 475.17 and the “tumor:pancreas” value stood at 6.90. Also, in the series on PC-3 tumor [5] (4 h blocking, 2000 fold), the “biodistribution, adrenal” value came to 0.07 ± 0.02; the “biodistribution, blood” value is on record as 0.02 ± 0.00; the “biodistribution, bone” value is listed as 0.03 ± 0.03; the “biodistribution, heart” value was 0.02 ± 0.00. In the series with PC-3 tumor [5] (4 h blocking, 2000 fold), the “biodistribution, intestine” value was 0.03 ± 0.01; the “biodistribution, kidney” value turned out to be 1.76 ± 0.36; the “biodistribution, liver” value came to 0.14 ± 0.01; the “biodistribution, lung” value is 0.05 ± 0.01. Further, in the series on PC-3 tumor [5] (4 h blocking, 2000 fold), the “biodistribution, muscle” value is listed as 0.01 ± 0.00; the “biodistribution, pancreas” value is given as 0.06 ± 0.02; the “biodistribution, pituitary” value is 0.23 ± 0.14; the “biodistribution, spleen” value is 0.06 ± 0.01. For the same molecule, in the series on PC-3 tumor [5] (4 h blocking, 2000 fold), the “biodistribution, stomach” value came to 0.06 ± 0.01 and the “biodistribution, tumor” value came to 0.61 ± 0.07. In the series with PC-3 tumor [5] (24 h), the “biodistribution, adrenal” value is given as 0.62 ± 0.16; the “biodistribution, blood” value turned out to be 0.01 ± 0.00; the “biodistribution, bone” value is 0.08 ± 0.02; the “biodistribution, heart” value is recorded as 0.02 ± 0.00. Further, in the series with PC-3 tumor [5] (24 h), the “biodistribution, intestine” value is reported as 0.05 ± 0.02; the “biodistribution, kidney” value is recorded as 1.37 ± 0.22; the “biodistribution, liver” value worked out at 0.11 ± 0.02; the “biodistribution, lung” value turned out to be 0.51 ± 0.73. For the same molecule, in the series on PC-3 tumor [5] (24 h), the “biodistribution, muscle” value was found to be 0.02 ± 0.00; the “biodistribution, pancreas” value turned out to be 0.33 ± 0.05; the “biodistribution, pituitary” value is recorded as 0.46 ± 0.52; the “biodistribution, spleen” value is on record as 0.07 ± 0.01. For the same molecule, in the series on PC-3 tumor [5] (24 h), the “biodistribution, stomach” value worked out at 0.05 ± 0.01; the “biodistribution, tumor” value worked out at 6.33 ± 0.76; the “tumor:blood” value was determined as 1155.51; the “tumor:bone” value is listed as 76.65. For the same molecule, in the series on PC-3 tumor [5] (24 h), the “tumor:kidney” value was 4.62, the “tumor:muscle” value is reported as 364.92 and the “tumor:pancreas” value was 19.16.

With “^177Lu-DOTA-Gly-4-aminobenzoyl-Gln-Trp-Ala-Val-Gly-His-Leu-Met-NH2 [Compound L70]”, the agonist/antagonist behaviour entry in the series with GRP receptor [6] is recorded as “behaved as an agonist”.
